Source: article PMC3237458, “PEGylation Potentiates the Effectiveness of an Antagonistic Peptide That Targets the EphB4 Receptor with Nanomolar Affinity” (PLoS ONE, 2011)
“And” between values parts separate entries of the source, which are not always exact repeats. Equal values may be shown once. “Also recorded” adds a separate entry of the source. Ends that are not written are not given here.

Experiments:
[1] = molecular target: T1, EphB4 (Homo sapiens, UniProt P54760); assay: EphB4 activation by multimeric peptide forms (unpublished data); format: cell-based
T1 sequence (P54760 16-987): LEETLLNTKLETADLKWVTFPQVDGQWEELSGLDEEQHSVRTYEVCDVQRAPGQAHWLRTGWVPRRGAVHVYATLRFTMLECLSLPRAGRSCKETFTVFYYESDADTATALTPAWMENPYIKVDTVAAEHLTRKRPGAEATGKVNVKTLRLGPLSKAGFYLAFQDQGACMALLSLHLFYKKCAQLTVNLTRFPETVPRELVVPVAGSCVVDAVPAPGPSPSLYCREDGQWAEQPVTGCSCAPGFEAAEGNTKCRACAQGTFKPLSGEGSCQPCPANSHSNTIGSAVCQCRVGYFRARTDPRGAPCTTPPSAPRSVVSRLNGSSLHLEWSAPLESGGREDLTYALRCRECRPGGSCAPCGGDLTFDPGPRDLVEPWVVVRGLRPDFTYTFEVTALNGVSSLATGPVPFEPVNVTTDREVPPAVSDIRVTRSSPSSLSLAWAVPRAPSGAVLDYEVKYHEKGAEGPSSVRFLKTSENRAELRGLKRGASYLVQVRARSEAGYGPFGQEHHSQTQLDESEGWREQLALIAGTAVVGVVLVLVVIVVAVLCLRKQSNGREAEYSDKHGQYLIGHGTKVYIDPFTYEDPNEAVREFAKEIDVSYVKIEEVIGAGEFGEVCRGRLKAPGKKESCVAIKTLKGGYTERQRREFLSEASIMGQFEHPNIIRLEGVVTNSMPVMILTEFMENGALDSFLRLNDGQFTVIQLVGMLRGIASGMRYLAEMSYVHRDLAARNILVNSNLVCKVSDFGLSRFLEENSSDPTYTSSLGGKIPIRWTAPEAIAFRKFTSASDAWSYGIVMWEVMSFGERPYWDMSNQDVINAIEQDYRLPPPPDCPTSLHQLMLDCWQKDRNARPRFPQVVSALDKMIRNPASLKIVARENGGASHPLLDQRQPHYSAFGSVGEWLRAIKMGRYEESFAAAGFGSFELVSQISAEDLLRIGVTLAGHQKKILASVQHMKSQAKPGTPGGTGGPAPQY

[2] = Peptide stability in cell culture medium / conditioned medium (ELISA of functional peptide); format: in vitro ADME; conditions: up to 48 hours; 25 nM peptide; medium diluted 1:10; functional peptide by ELISA; 6–9 measurements; Figure 3A
Method: PC3 prostate cancer cells were grown in RPMI 1640 medium (Mediatech, Inc, Herndon, VA) with 10% fetal bovine serum (FBS) (Hyclone, Logan, UT), penicillin and streptomycin. B16-F10-luc-G5 melanoma cells (Caliper Life Sciences, Hopkinton, MA) were grown in Eagle's MEM with Earle's Balanced Salts (EBSS) (Hyclone, Logan, UT) supplemented with 10% FBS, non essential amino acids (Hyclone, Logan, UT), L-glutamine, sodium pyruvate (Hyclone, Logan, UT), MEM vitamin solution (Life Technologies-Invitrogen), penicillin and streptomycin (Omega Scientific, Tarzana, CA). HUVECs (Cascade Biologics, Portland, OG) were grown in Medium 200 supplemented with low serum growth supplements (Cascade Biologics), 10% FBS, penicillin and streptomycin, and fungizone (Omega Scientific, Tarzana, CA). Rat EMCs were grown in DMEM (Mediatech, Inc, Herndon, VA) supplemented with 10% FBS, penicillin and streptomycin. The different modified forms of TNYL-RAW at a concentration of 25 nM were added to fresh medium or culture medium conditioned by the cells for 1–4 days. The culture medium was collected after different time periods and diluted 1∶10 in ELISA wells. The amount of intact TNYL-RAW peptide remaining was measured by using the ELISA assays described above for measurement of binding affinity. In some experiments, the peptide was incubated at 37°C with PC3 cell conditioned medium collected from the cells in the absence or in the presence of protease inhibitors (10 µg/ml aprotinin, 5 µg/ml pepstatin, 10 µg/ml leupeptin and 0.75 mM or phenylmethylsulfonylfluoride (PMSF)).

[3] = Peptide retention in mouse blood circulation; format: in vivo; conditions: C57BL/6 mice, intravenous, serum ELISA, 3 mice, Figure 3C; for Circulation half-life (t1/2): 2.1 nmoles TNYL-RAW-Fc, 1.5 nmoles TNYL-RAW-streptavidin, 6 nmoles PEG-TNYL-RAW, non linear regression; for AUC: % of the injected dose•hours/ml
Method: 2.1 nmoles TNYL-RAW-Fc, 1.5 nmoles TNYL-RAW-streptavidin and 6 nmoles PEG-TNYL-RAW, diluted in 150 µl sterile PBS, were administered to C57BL/6 mice by intravenous or intraperitoneal injection. Blood was collected from each mouse from the orbital sinus at two time points after injection and by cardiac puncture under Avertin anesthesia at a third time point. These experiments were carried out in accordance with the recommendations in the Guide for the Care and Use of Laboratory Animals of the National Institutes of Health. The protocol was approved by the Institutional Animal Care and Use Committee of the Sanford-Burnham Medical Research Institute (Animal Assurance Number: A-3053-1). After collection, the blood was […], and the serum was stored at −20°C. The different forms of TNYL-RAW in the serum were detected by using the same ELISA assays described above for measurements of binding affinity. The absorbance from wells incubated with mouse serum without TNYL-RAW was subtracted as the background and the concentration of TNYL-RAW in the blood was calculated based on a standard curve generated using serum containing known TNYL-RAW concentrations. The half-life of each peptide was estimated by using non linear regression and the program Prism (GraphPad Software Inc.). The area under the curve (AUC) was expressed as % ID•hours/ml (where ID is the initial dose of peptide injected) and calculated by dividing the AUC value obtained using the program Prism by the amount of injected peptide and multiplying by 100.

[4] = Peptide stability in mouse serum ex vivo; format: in vitro ADME; conditions: undiluted mouse serum, 37°C, functional peptide by ELISA; Figures 1E, 3B

Row | Activation of EphB4 [1] | Substance | Degradation in PC3 cell conditioned medium [2] | Circulation half-life (t1/2) [3] | AUC [3] [% ID-h/ml] | Stability in mouse serum ex vivo [4]
1 | unable to detectably activate EphB4 | TNYL-RAW-streptavidin: biotinylated TNYL-RAW in complex with streptavidin at molar ratio 4:1 | absence of peptide degradation | ~1 h and 1.3 h | 110 | much decreased degradation
2 | unable to detectably activate EphB4 | TNYL-RAW-Fc: TNYL-RAW fused through a GSGSK linker to the Fc portion of human IgG1, from HEK 293 cells (TNYLFSPNGPIARAWGSGSK-{Fc (human IgG1)}; also: dimer) | absence of peptide degradation | ~1 h and 0.8 h | 140 | much decreased degradation; also recorded: not as stable in mouse serum as the streptavidin-bound or PEGylated peptide
